Assay: label from the status in PepcDB records

| Sequence | protein production |
| --- | --- |
| MTNIQKRFYKGRVALNVLANNIENAKDIFEAAEGYVVVGVLSKDYPTVEEAVTAMKAYGKEIDDAVSIGLGAGDNRQAAVVAEIAKHYSGSHINQVFPSVGATRANLGGKDSWINSLVSPTGKVGYVNISTGPISAAGEEKAIVPIKTAIALVRDMGGNSLKYFPMKGLAHEEEYRAVAKACAEEGFALEPTGGIDKENFETILRIALEANVEQVIPHVYSSIIDKETGNTKTEDVRELLAVVKKLVDQYA | not failed |
| MVVLMLCAALLVIVGCPETALGKGLRRWLVDWPAKVLAGLTPARLVLLLALLAVSTLVVVLFEVEGAILLGMALPEVAVWFMAFDVAVFIDLFAAIALAANGARLKGLGDRIKALPRRFGRGLVARVRRSGQGRQGGRRFRRPGSGATKSEDGDAGWSGAAQPGALAWA | failed |
| MNWAKFRETGSPEDTDMSSTPISSDTTAVSKVIDPNYVLMVADFFKAISPDESCNDFTSFDSFSVLFQNNTRALSIARGRVSCSVTVTPGISNFFKGLHGGAVASIAERVAMACVKTVVSEDKHLFIGELSMSYLSSAPISSELLVEGTVVRTGRNLSVVTVEFKIKETMKVTYLSRATFYHSPISKL | failed |
| MSQATAKVNREVQAFLQDLKGKTIDHVFFVACGGSSAIMYPSKYVFDRESKSINSDLYSANEFIQRNPVQLGEKSLVILCSHSGNTPETVKAAAFARGKGALTIAMTFKPESPLAQEAQYVAQYDWGDEALAINTNYGVLYQIVFGTLQVLENNTKFEQAIEGLDQLQAVYEKALKQEADNAKQFAKAHEKESIIYTMASGANYGVAYSYSICILMEMQWIHSHAIHAGEYFHGPFEIIDESVPFIILLGLDETRPLEERALTFSKKYGKKLTVLDAASYDFTAIDDSVKGYLAPLVLNRVLRSYADELAEERNHPLSHRRYMWKVEY | not failed |
| MLVMIDTKRPPVYIDSQVGLNTFFLIRGRYPSLNLFVSFITTVKTLGNNVSRTHGDDAESDRVSNVDENNEAVDEQDNIEDDKTDEDEKEGDNEDGDGYDDYQGDDESMGGSTLDPTIDGSESSDEDCDYNKWNDVIVEEYGMLRRTSFSHQGNSVVCWQSVRTQVSVYLTEITFLTRVTVHQL | failed |
| MELKILVTGGNVFVPGRLNAHFSTVVYLEHKDRRIIIDPGNLSSMDELEEKFSELGISPDDITDVLFTHVHLDHIFNSVLFENATFYVHEVYKTKNYLSFGTIVGRIYSKVISSWKNVVLLKGEESLFDEKVKVFHTPWHAREHLSFLLDTENAGRVLITGDITPNRLSYYDIIKGYGSVQVKNFLDRVGRIDLLVFPHDAPLKPEVKK | not failed |
| MKLKGKGIGKVVVEGEVIVSRKPLSFLGGVDPETGTITDPESDIKGESITGKILVFPKGKGSTVGSYILYALSKNGKGPKAIIVEEAEPIVTAGAIISGIPLITNVDISKLKTGMRVRINPQEGEVEILAEGNLLEHHHHHH | failed |
| MPLAVLERDGSFLGVLTPHSIVEVLLERERRLLEDARKINAEIRREADKAIEQLDIKAHYDTVTGLPNRQLFCDRLLQALAAHERDGNPVVLLFLDVDNFKSINDSLGHLVGDRLLRATAERIRTAVRDGDTVARIGGDEFTILLNGAKDTLNGALVAQKILDGLAQPFVFGAQQIVISVSIGIAVSPADGETMEQLLRNADTAMYHAKSRGKNNYQFFSPELNVQAYRRQEIERNLRCALLQGELGLRYAPRVDLRSGRIVALEVCPFWLSSELGDVPPDDFIPVAEETGLIVQIGIWAFRTACAHAAVWRTQGLADRCLSFRLSQRELDDPQFGDRIMSLLDGCGLEPENLQFELSERMLMTHAAHTLAVLQELSNRGIRFSVGDFGTGNASLRRLRRFPIDELKIDLSSVRDIEPDSDDAAVITAMIAMAKSLRMDVVAVGVETPEHVAFLLERGCRHGQGRLIGARLPPERIAALLAGDAVDLFVALEHHHHHH | failed |
| MAYDSRLPEQRDPATDPSANYDYQGDSVNRPDLVSALEQRVDGDVRFDTYTRELFATDASAYEQLPIGVVSPVSTEDVVAVMEYCAAEDIPVLPRGGGTSLAGQAVNEAVVLDFKRYMDE | not failed |
| MTSYIILKHLHMTTAYLTITLFALRLLLDAVGRPGWRQTPLRFIPHINDTILLVAAIALVFVAGYASAMPGWLITKIVLLFGYIIAGVFALKTTVGKPARIVAAVLALVQVSAIFHLAMAKPF | failed |
| MDSDFHVKPEIRILGIDDSALLNEKVMIVGTVFRGGDWIDGVLRSEITRDGLDATEVMVTMIKNSRHHNQLRVIMLDGITYGGFNVVDIEELYRETGLPVIVIMRSCPDFEKIRSALKHFSDGEERWKIIKKAGKIEKLITGRNGTPIYIQKAGIGAKNVEKIIRLTSIRSSIPEPLRVAHLIATGITLGESRGKA | failed |
| MDMQHRIRQLFQASIETKQQALEVLPPYIEQASLVMVNALLNEGKILSCGNGGSAGDAQHFSSELLNRFERERPSLPAVALTTDSSTITSIANDYSYNEVFSKQIRALGQPGDVLLAISTSGNSANVIQAIQAAHDREMLVVALTGRDGGGMASLLLPEDVEIRVPSKITARIQEVHLLAIHCLCDLIDRQLFGSEE | not failed |
| MVSNSSITFKEFVDYWFEAYASTAVKPSTQKRYRQLLKPALRAIGNKPLNKVKPLDIQNIYIALAGTQSNCTILKLHRLLHEIFKHAQMWEYISDNPVKKVVPPTPEKKVFDLEHHHHHH | failed |
| VGDGKNQIFVKSLDGYREVQITDEKEGVSTFKWGPTGKGLYYVTQSKECEEIKKRKDLYGDFQHIGKEHQNNCLYYIEIEKVIQSDTDEHKNRVVYQLTDGKDFHIHEFDISNDGKKVVFMATPSSNMADYINGDLYILHIKAGELQKLNVDKLLGGSVCFSPDGSEICYTASIREKGYYRNHIQDSTLEIYDINTGELIQPLTDFD | failed |
| MTLSKRLALLGAQSAITLAKPRGLGSSLGLLDRRPFPYRQFSELTKANGRRAFLVDTLALVRSLEAQGVPSKQAEAITSAITEVLNDSLENVSESFVSKAEMQKIEMIQDSNLSKFKSEVKSSQVTSTLVV | failed |
| MSDTLRPYKNLFPGIGQRVMIDTSSVVIGDVRLADDVGIWPLVVIRGDVNYVAIGARTNIQDGSVLHVTHKSSSNPHGNPLIIGEDVTVGHKVMLHGCTIGNRVLVGMGSIVLDGAIIEDDVMIGAGSLVPQHKRLESGYLYLGSPVKQIRPLSDAERSGLQYSANNYVKWKDDYLSQDNHIQP | not failed |
| GDLAGSLDLGTGRIALYSIDVSGHGVASALMTARLAGLLSGLSTDGGVARSDGACRQCAGHDSWPPEILAARLNRMMIADLGVEQYFTMAYAEIDLRSGALALVQAGHPHPVVLRAGGRVELLGQGGLPVGLLPDATFERSETRLLPGDRLFLLSDGVTECPDLSGHELGEAGLVRLLAEHAGLGSEELMEALVWALHERMGGGDFRDDVSGVLFDY | failed |
| MPHQKIYLVGAGIEGWEGFGAKALEVIGKAEVLVGHKRHLDIFSDFTGKKQELGDLSILLEQLRSTDKRTVVLGSGDPNFFGIARFLLRNLPKERIEIFPNVTSVQYAFAQIKEPWDDAIFVSVHGRGLKGAVDRIVAAEKVAVLTDKTNSPAAIARELIARGAEGYEAWLCENLGLPGEKFTRTDVKGLLELPAAELNILILIKAWEPQLAQYPVIGIDDDEFATAKKLITKQEVRAVTLSKLRLQDDLVMWDIGAGSASVSIEASNLMPNGRIFALERNPQYLGFIRDNLKKFVARNVTLVEAFAPEGLDDLPDPDRVFIGGSGGMLEEIIDAVDRRLKSEGVIVLNAVTLDTLTKAVEFLEDHGYMVEVACVNVAKTKGLTEYKMFESHNPVYIITAWKSDE | failed |
| PGLSLRTLDMDRLEEEVRTVRDIYNDAWSDNWGFVPMTEGELQQLADELKQIVDPEIVFFVEHEGTPVGFSVALPDVNQALRHVPDGRLFPYGVPSGLTTLFLHMQYGVHECRMPLMGIRKDYQGKGLDSMLVLATIENGPANGYAACEMSWVLDTNDRLKNHVESLGAVVDKEYAMFETPLSQND | failed |
| MDIVLIGGLWLNGSVWEGVASTLESLGHRPVPLTLPGQGDGAATATLDDQVAAVLAAVDAAPGRPMVVGHSAACALAWLAADRRPGRLAKVALIGGIPTPDGRPYADFFEVRDGVMPFPGWEPFQGPDAADLDEAARHELAAAAIPVPEAVARGVVRLSDERRYDVPVVVVCPEFTPAQARGWIDAGDVPELARAKHVDFADIDSGHWPMITKPAELARVLAAAAEGN | failed |

Source: a protein production outcome set (Wang et al. 2014)
